Protein stability index data for 94 variants are collected here from the supplement of paper PMC10567573.

B1: KCNA3 (parent)
chain: YQSGGRIRRPVNVPIDIFSEEIRF
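Also: lentivirally expressed fusions sorted by FACS into six bins by GFP to DsRed ratio, PSI derived from sequencing read proportions per bin multiplied by bin number.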

In the data set the parent is B1. The data set is described as follows: protein stability index of a GFP-peptide fusion (GPS, HEK-293T) (PSI 1-6); higher = more stable. The note with it: c terminus: a fixed tail appended.
In the case of YQSGGRIRRPVAVPIDIFSEEIRF [N12A], the protein stability index was found to be 1.8.

On to YQSGGRIRRPVPVPIDIFSEEIRF [N12P], for which the protein stability index came to 2.11.

As for YQSGGRIRRPVRVPIDIFSEEIRF [N12R], the protein stability index is 1.28.

As for YQSGGRIRRPVQVPIDIFSEEIRF [N12Q], the protein stability index amounted to 2.34.

Take YQSGGRIRRPVGVPIDIFSEEIRF [N12G]: the protein stability index was found to be 1.83.

Take YQSGGRIRRPVWVPIDIFSEEIRF [N12W]: the protein stability index is 2.21.

Regarding YQSGGRIRRPVLVPIDIFSEEIRF [N12L], the protein stability index turned out to be 1.4.

On to YQSGGRIRRPVTVPIDIFSEEIRF [N12T], for which the protein stability index amounted to 2.17.

Consider YQSGGRIRRPVKVPIDIFSEEIRF [N12K], for which the protein stability index came to 1.91.

For the variant YQSGGRIRRPVVVPIDIFSEEIRF [N12V], the protein stability index was determined as 1.41.

For the variant YQSGGRIRRPVMVPIDIFSEEIRF [N12M], the protein stability index came out at 2.26.

For YQSGGRIRRPVIVPIDIFSEEIRF [N12I], the protein stability index stood at 1.93.

On to YQSGGRIRRPVFVPIDIFSEEIRF [N12F], for which the protein stability index was 1.35.

Consider YQSGGRIRRPVYVPIDIFSEEIRF [N12Y], for which the protein stability index came out at 1.08.

For the variant YQSGGRIRRPVDVPIDIFSEEIRF [N12D], the protein stability index came to 1.8.

As to YQSGGRIRRPVHVPIDIFSEEIRF [N12H], the protein stability index is 3.14.

Turning to YQSGGRIRRPVEVPIDIFSEEIRF [N12E], the protein stability index was 1.8.

On to YQSGGRIRRPVCVPIDIFSEEIRF [N12C], for which the protein stability index is 2.62.

Turning to YQSGGRIRRPVSVPIDIFSEEIRF [N12S], the protein stability index was found to be 2.63.

Regarding YQSGGRIRRPVNVPIDIFSEPIRF [E21P], the protein stability index worked out at 1.65.

As for YQSGGRIRRPVNVPIDIFSEMIRF [E21M], the protein stability index was found to be 1.87.

With YQSGGRIRRPVNVPIDIFSEVIRF [E21V], the protein stability index was determined as 1.97.

In the case of YQSGGRIRRPVNVPIDIFSENIRF [E21N], the protein stability index came out at 2.33.

On to YQSGGRIRRPVNVPIDIFSECIRF [E21C], for which the protein stability index was found to be 2.51.

For YQSGGRIRRPVNVPIDIFSESIRF [E21S], the protein stability index was determined as 1.48.

Consider YQSGGRIRRPVNVPIDIFSEFIRF [E21F], for which the protein stability index is 1.62.

As to YQSGGRIRRPVNVPIDIFSEYIRF [E21Y], the protein stability index stood at 2.56.

YQSGGRIRRPVNVPIDIFSELIRF [E21L]: the protein stability index is 2.09.

YQSGGRIRRPVNVPIDIFSEHIRF [E21H]: the protein stability index stood at 2.

For the variant YQSGGRIRRPVNVPIDIFSEIIRF [E21I], the protein stability index was 1.6.

For YQSGGRIRRPVNVPIDIFSEQIRF [E21Q], the protein stability index is 2.75.

As to YQSGGRIRRPVNVPIDIFSEDIRF [E21D], the protein stability index was determined as 1.56.

For the variant YQSGGRIRRPVNVPIDIFSERIRF [E21R], the protein stability index turned out to be 2.38.

Regarding YQSGGRIRRPVNVPIDIFSETIRF [E21T], the protein stability index was determined as 1.95.

Turning to YQSGGRIRRPVNVPIDIFSEAIRF [E21A], the protein stability index was found to be 2.27.

For the variant YQSGGRIRRPVNVPIDIFSEKIRF [E21K], the protein stability index was determined as 1.84.

On to YQSGGRIRRPVNEPIDIFSEEIRF [V13E], for which the protein stability index is 2.14.

YQSGGRIRRPVNAPIDIFSEEIRF [V13A]: the protein stability index came to 1.88.

As to YQSGGRIRRPVNHPIDIFSEEIRF [V13H], the protein stability index is 2.19.

With YQSGGRIRRPVNRPIDIFSEEIRF [V13R], the protein stability index was determined as 2.01.

As for YQSGGRIRRPVNNPIDIFSEEIRF [V13N], the protein stability index stood at 2.13.

As to YQSGGRIRRPVNMPIDIFSEEIRF [V13M], the protein stability index was determined as 2.25.

For the variant YQSGGRIRRPVNIPIDIFSEEIRF [V13I], the protein stability index was determined as 2.43.

Consider YQSGGRIRRPVNFPIDIFSEEIRF [V13F], for which the protein stability index worked out at 1.86.

Consider YQSGGRIRRPVNWPIDIFSEEIRF [V13W], for which the protein stability index stood at 2.01.

YQSGGRIRRPVNSPIDIFSEEIRF [V13S]: the protein stability index turned out to be 2.11.

For YQSGGRIRRPVNYPIDIFSEEIRF [V13Y], the protein stability index worked out at 1.69.

On to YQSGGRIRRPVNLPIDIFSEEIRF [V13L], for which the protein stability index worked out at 1.95.

For YQSGGRIRRPVNCPIDIFSEEIRF [V13C], the protein stability index is 1.78.

In the case of YQSGGRIRRPVNPPIDIFSEEIRF [V13P], the protein stability index was 1.86.

As for YQSGGRIRRPVNTPIDIFSEEIRF [V13T], the protein stability index was found to be 1.82.

Turning to YQSGGRIRRPVNKPIDIFSEEIRF [V13K], the protein stability index was 2.36.

As for YQSGGRIRRPVNQPIDIFSEEIRF [V13Q], the protein stability index is 2.42.

On to YQSGGRIRRPVNGPIDIFSEEIRF [V13G], for which the protein stability index was determined as 2.31.

On to YQSGGRIRRPVNDPIDIFSEEIRF [V13D], for which the protein stability index was 2.14.

As to YQSGGRIRRPVNVPSDIFSEEIRF [I15S], the protein stability index was found to be 2.69.

Consider YQSGGRIRRPVNVPPDIFSEEIRF [I15P], for which the protein stability index came out at 2.03.

YQSGGRIRRPVNVPLDIFSEEIRF [I15L]: the protein stability index is 1.83.

Regarding YQSGGRIRRPVNVPYDIFSEEIRF [I15Y], the protein stability index is 1.63.

As to YQSGGRIRRPVNVPHDIFSEEIRF [I15H], the protein stability index was 2.16.

For the variant YQSGGRIRRPVNVPEDIFSEEIRF [I15E], the protein stability index was found to be 2.11.

As for YQSGGRIRRPVNVPWDIFSEEIRF [I15W], the protein stability index came to 1.92.

Turning to YQSGGRIRRPVNVPQDIFSEEIRF [I15Q], the protein stability index is 2.56.

Turning to YQSGGRIRRPVNVPCDIFSEEIRF [I15C], the protein stability index is 2.13.

For the variant YQSGGRIRRPVNVPTDIFSEEIRF [I15T], the protein stability index was found to be 2.37.

For YQSGGRIRRPVNVPDDIFSEEIRF [I15D], the protein stability index was found to be 2.33.

Regarding YQSGGRIRRPVNVPNDIFSEEIRF [I15N], the protein stability index is 2.36.

Take YQSGGRIRRPVNVPKDIFSEEIRF [I15K]: the protein stability index stood at 2.19.

YQSGGRIRRPVNVPRDIFSEEIRF [I15R]: the protein stability index came out at 2.41.

For YQSGGRIRRPVNVPGDIFSEEIRF [I15G], the protein stability index was 2.4.

Turning to YQSGGRIRRPVNVPADIFSEEIRF [I15A], the protein stability index came to 3.48.

As to YQSGGRIRRPVNVPMDIFSEEIRF [I15M], the protein stability index stood at 2.13.

Consider YQSGGRIRRPVNVPFDIFSEEIRF [I15F], for which the protein stability index was determined as 1.48.

Turning to YQSGGRIRRPVNVPIRIFSEEIRF [D16R], the protein stability index was found to be 1.64.

As to YQSGGRIRRPVNVPIAIFSEEIRF [D16A], the protein stability index came to 3.22.

Regarding YQSGGRIRRPVNVPIMIFSEEIRF [D16M], the protein stability index is 1.73.

YQSGGRIRRPVNVPIYIFSEEIRF [D16Y]: the protein stability index is 1.39.

Turning to YQSGGRIRRPVNVPINIFSEEIRF [D16N], the protein stability index turned out to be 2.01.

For the variant YQSGGRIRRPVNVPISIFSEEIRF [D16S], the protein stability index was 2.42.

Turning to YQSGGRIRRPVNVPIIIFSEEIRF [D16I], the protein stability index amounted to 2.51.

With YQSGGRIRRPVNVPICIFSEEIRF [D16C], the protein stability index came to 1.41.

Take YQSGGRIRRPVNVPILIFSEEIRF [D16L]: the protein stability index was found to be 1.88.

With YQSGGRIRRPVNVPIQIFSEEIRF [D16Q], the protein stability index was 2.61.

On to YQSGGRIRRPVNVPIHIFSEEIRF [D16H], for which the protein stability index stood at 1.84.

On to YQSGGRIRRPVNVPIFIFSEEIRF [D16F], for which the protein stability index was determined as 1.33.

On to YQSGGRIRRPVNVPITIFSEEIRF [D16T], for which the protein stability index was determined as 2.51.

Take YQSGGRIRRPVNVPIPIFSEEIRF [D16P]: the protein stability index is 2.34.

Consider YQSGGRIRRPVNVPIKIFSEEIRF [D16K], for which the protein stability index was 1.8.

Take YQSGGRIRRPVNVPIGIFSEEIRF [D16G]: the protein stability index was determined as 1.73.

For the variant YQSGGRIRRPVNVPIWIFSEEIRF [D16W], the protein stability index worked out at 1.87.

Take YQSGGRIRRPVNVPIVIFSEEIRF [D16V]: the protein stability index stood at 1.19.

For YQSGGRIRRPVNVPIDIFCEEIRF [S19C], the protein stability index was 1.39.

In the case of YQSGGRIRRPVNVPIDIFNEEIRF [S19N], the protein stability index came out at 2.74.

Take YQSGGRIRRPVNVPIDIFHEEIRF [S19H]: the protein stability index turned out to be 1.49.
